The text below walks through data of US20120295811, “APTAMERS DIRECTED AGAINST THE MATRIX PROTEIN-1 OF TYPE A INFLUENZA VIRUSES AND USES […]” (published 2012).

In this series the target is Nucleoprotein (NP) (Influenza A virus, UniProt P03466 SEQ:1-498). Put plainly: SPR; 2 uM, 22 C. The conditions noted are these: tags: His tag (pET28a, Co2+ resin purification), E. coli; label: 5'-amino-C12 linker (microarray); hairpin with bulge, internal loop and lateral small hairpin. Background: Surface plasmon resonance follows binding to a sensor surface in real time, without labels.
Nucleoprotein (NP), sequence (P03466 whole entry): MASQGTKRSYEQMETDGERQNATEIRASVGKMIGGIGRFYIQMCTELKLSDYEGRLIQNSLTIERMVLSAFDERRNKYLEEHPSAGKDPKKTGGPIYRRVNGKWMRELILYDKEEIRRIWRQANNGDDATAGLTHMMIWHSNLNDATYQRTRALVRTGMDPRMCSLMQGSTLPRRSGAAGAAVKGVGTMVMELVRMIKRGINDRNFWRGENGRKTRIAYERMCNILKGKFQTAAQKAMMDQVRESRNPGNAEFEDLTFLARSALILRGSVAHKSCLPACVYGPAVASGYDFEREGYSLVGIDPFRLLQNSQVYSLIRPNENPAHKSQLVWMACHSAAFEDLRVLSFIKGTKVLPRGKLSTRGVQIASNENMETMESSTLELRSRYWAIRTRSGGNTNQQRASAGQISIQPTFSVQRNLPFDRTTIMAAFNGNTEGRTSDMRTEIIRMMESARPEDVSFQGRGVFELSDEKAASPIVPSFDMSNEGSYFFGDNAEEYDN

B1: M1R9C6 36-mer (ssRNA)
RNA: UGCCCUGACCAUCCUGAGGGACGCAUUGGCCGGGCA
Take B1: the binding result is on record as “no binding”.

B2: M1R9C1 36-mer (ssRNA)
RNA: UGCCUGACCACUCAGAAUCGAGCGCAUUGGCCGGCA
On to B2, for which the binding result was “no binding”.
